Data from patent US10919943B2, “Mutant proteins enabling agrochemical control of plant gene expression” (The Regents of the University of California, priority 2016, dated 2021).

Tests used:
HAB1^!-2 = experiment: Yeast two hybrid, mandipropamid-promoted interaction of PYR1 variants with HAB1^!-2; assay type: cell-based
Description: To engineer orthogonal mandipropamid responsiveness, we introduced the PYR1^! mutation into the PYR1^MANDI receptor to create a septuple mutant called PYR1^!-MANDI (PYR1^Y58H;K59R;V81I;F108A;S122G;F159L;T162D). This mutant interacts with HAB1^! and HAB^!-2 in response to low μM mandipropamid in yeast two-hybrid assays, but is ˜100-fold less sensitive than the PYR1^MANDI/HAB1 interaction, which responds to concentrations in the low nM range (FIG. 3).
To improve sensitivity, we mutagenized ligand contacting and interface residues in PYR1^!-MANDI using NNK primers, pooled the mutant libraries, and used the mutagenized receptors in selection experiments using to identify enhancer mutations. The NNK mutagenesis screen targeted the following residues: P55, H60, F61, I62, K63, V83, S85, G86, L87, P88, A89, S92, E94, I110, H115, R116, L117, Y120, E141, P148, G150, N151, D154, D155, T156, M158, A160, V163, V164, L166, N167, and K170. […] Since M158 and A160 flank the […] mutation present in PYR1^MANDI, we inferred that the closely located orthogonalizing T162D mutation in PYR1^!-MANDI may have reduced mandipropamid sensitivity by altering the local structure of the C-terminal α3-helix, which participates in ligand-induced conformational changes needed for PP2C binding (Nishimura et al., 2009). We therefore simultaneously mutagenized positions M158, F159 and A160 using a primer with degenerate NNK codons at all three positions. F159 was included in this mutagenesis because we have previously observed that multiple substitutions at F159 (A,C,I,L,M,T, or V) are permissive for mandipropamid responsiveness (S. Y. Park et al., n.d.), and sought to test whether residues other than leucine at position 159 might function better in the context of simultaneous changes to both A160 and M158. The mutagenic primer was used in QuickChange mutagenesis reactions using pBD-PYR1^!-MANDI template, and a library of ˜12,000 clones was generated. Plasmid DNA for the library was prepared from pooled E. coli transformants, and subsequently transformed into S. cerevisiae strain MAV99 harboring pACT-HAB1^!-2. ˜20,000 yeast transformants were generated, pooled, and plated onto SD(-Leu,-Trp) agar media supplemented with 0.1% fluorotic acid (to select against mutants that interact in a ligand-independent fashion). The surviving cells were collected and plated onto SD(Leu,-Trp,-Ura) plates supplemented with 50 nM mandipropamid. The colonies displaying the best uracil-independent growth were isolated and retested on different mandipropamid concentrations and then stained in β-galactosidase assays to rank their relative strength.

HAB1 = experiment: In vitro PP2C assay, ligand-promoted inhibition of GST-HAB1 by receptor; assay type: biochemical, Arabidopsis; settings: FIG. 9
Description: In the presence of ABA, wild type PYR1 binds to HAB1 and docks into its active site, which inhibits its enzymatic activity by blocking access of substrates. To characterize the orthogonal PYR1^! and HAB1^! interaction biochemically, we produced recombinant forms of each protein in E. coli, along with the wild type form, and tested the wild type and orthogonal mutant for their ability to inhibit HAB1 and HAB1^! activities in vitro. We cloned PYR1^! into pET28 to generate 6×-His tagged receptor and cloned HAB1^! into pGEX-4T-1 to create a GST-fusion protein. The previously constructed (S.-Y. Park et al., 2009) wild type 6×-His-PYR1 and GST-HAB1 constructs were used for producing recombinant wild type proteins. The 6×-His-tagged receptors and GST-tagged PP2Cs were expressed and purified as previously described. Briefly, the proteins were expressed in BL21 [DE3]pLysS E. coli host cells at 18° C. overnight. Fusion proteins were purified from sonicated lysates using Ni-NTA agarose (Qiagen, USA) or Pierce™ Glutathione Agarose (Thermo Scientific) according to the manufacturer's instructions. PP2C assays were conducted in 96-well polystyrene flat-bottom microtitre plates (Greiner). […] The plates were read using a Victor 2 plate reader (PerkinElmer) (355 nm excitation, 460 nm emission) and assays run in triplicate. The PP2C activity values reported are expressed as percent control values, which were calculated by including the carrier solvent (1% DMSO) and the specific receptor assayed, but no ligand. […]
According to our current understanding, in order for ABA signaling to be initiated in vivo, PP2C activity must be inhibited to enable accumulation of active SnRK2 kinases. […] 4-methylumbeliferyl phosphate was added (1 mM final concentration) was added to the reactions after 30 minutes equilibration and plates were read by fluorimetry. The PP2C activity values reported are expressed as percent control values, which was calculated by including the carrier solvent (1% DMSO) and the specific receptor assayed, but no ligand.

B1: PYR1*^-MANDI: PYR1 mutant with 9 mutations, most sensitive to mandipropamid (protein, listed as Arabidopsis thaliana)
chain: MPSELTPEERSELKNSIAEFHTYQLDPGSCSSLHAQRIHAPPELVWSIVRRFDKPQTHRHFIKSCSVEQNFEMRVGCTRDIIVISGLPANTSTERLDILDDERRVTGASIIGGEHRLTNYKGVTTVHRFEKENRIWTVVLESYVVDMPEGNSEDDTRIVVDDVVKLNLQKLATVAEAMARNSGDGSGSQVT
HAB1^!-2; FIG. 3, FIG. 4
  mandipropamid concentration to which the interaction responds: nM levels
HAB1^!-2; β-galactosidase assays on different mandipropamid concentrations
  relative mandipropamid sensitivity among selected mutants: most sensitive mutant
HAB1; in response to ABA
  inhibition of HAB1 enzymatic activity: does not inhibit
HAB1; in response to mandipropamid, 100 nM receptor, 50 nM GST-HAB1
  inhibition of wild type HAB1 enzymatic activity: does not substantially inhibit
